Laboratory results from US20200231654A1 (published 2020).
Like-named read-outs stand apart in the source and are kept apart here.

Key:
[1] = target: T1, active hMMP-9(cat)_His6 (UniProt P14780 107-449); test: enzyme inhibition; substrate peptide
[2] = target: D113K; test: substrate peptide degradation inhibition
[3] = target: G186A; test: substrate peptide degradation inhibition
[4] = target: I198V; test: substrate peptide degradation inhibition
[5] = target: P196T; test: substrate peptide degradation inhibition
[6] = target: L114P; test: substrate peptide degradation inhibition
[7] = target: T109F; test: substrate peptide degradation inhibition
[8] = target: E111P; test: substrate peptide degradation inhibition
[9] = target: G112R; test: substrate peptide degradation inhibition
[10] = target: Q108N; test: substrate peptide degradation inhibition
[11] = target: P180A; test: substrate peptide degradation inhibition
[12] = target: S413Q; test: substrate peptide enzyme inhibition
[13] = target: L418A; test: substrate peptide enzyme inhibition
[14] = target: D410E; test: substrate peptide enzyme inhibition
[15] = target: P421A; test: substrate peptide enzyme inhibition
[16] = target: T1, active hMMP-9(cat)_His6; test: enzyme inhibition; substrate peptide; remark: listed apart in the source

T1 sequence (P14780 107-449): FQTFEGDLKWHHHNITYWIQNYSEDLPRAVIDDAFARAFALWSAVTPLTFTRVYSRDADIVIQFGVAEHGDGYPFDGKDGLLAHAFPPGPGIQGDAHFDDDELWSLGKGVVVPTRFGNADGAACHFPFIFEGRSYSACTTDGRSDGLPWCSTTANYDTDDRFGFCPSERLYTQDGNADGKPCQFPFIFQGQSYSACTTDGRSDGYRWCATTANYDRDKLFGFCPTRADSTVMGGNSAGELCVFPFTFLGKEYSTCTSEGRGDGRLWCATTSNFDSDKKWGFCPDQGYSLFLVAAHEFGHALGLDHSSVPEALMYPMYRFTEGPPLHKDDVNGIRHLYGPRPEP

B1: M91002_G2 (designed binder)
chain: GSGMKETAAAKFERQHMDSPDLGTDDDDKAMAENLYFQGDPQFGLFSKYRTPNCRTGRGPACQMGFQPVCGSDMSTYANECTLCMKIREGGHNIKIIRNGPCGG
IC50 [1]: 0.0035 µM

B2: M91005 (designed binder)
chain: GSGMKETAAAKFERQHMDSPDLGTDDDDKAMADIGSANSDPQFGLFSKYRTPNCRKRGGPSCQMSYNPVCGSDMSTYANECTLCMKIREGGHNIKIIRNGPCGASAAA
IC50 [2]: 0.021 µM
IC50 [3]: 0.015 µM
IC50 [4]: 0.016 µM
IC50 [5]: 0.018 µM
IC50 [6]: 0.022 µM
IC50 [7]: 0.015 µM
IC50 [8]: 0.031 µM
IC50 [9]: 0.019 µM
IC50 [10]: 0.02 µM
IC50 [11]: 0.025 µM
IC50 [12]: 0.03 µM
IC50 [13]: 0.0093 µM
IC50 [14]: 0.022 µM
IC50 [15]: 0.023 µM

B3: M91002_G3 (designed binder)
chain: GSGMKETAAAKFERQHMDSPDLGTDDDDKAMAENLYFQGDPQFGLFSKYRTPNCRTGRGPACQMGFQPVCGSDMSTYANECTLCMKIREGGHNIKIIRNGPCGGG
IC50 [1]: 0.0035 µM

B4: M91005_D1G-Fc-01 (Fc fusion)
chain: GSGMKETAAAKFERQHMDSPDLGTDDDDKAMADIGSANSGPQFGLFSKYRTPNCRKRGGPSCQMSYNPVCGSDMSTYANECTLCMKIREGGHNIKIIRNGPCGASAAAGGGGSDKTHTCPPCPAPELLGGPSVFLFPPKPKDTLMISRTPEVTCVVVDVSHEPEVKFNWYVDGVEVHNAKTKPREEQYNSTYRVVSVLTVLHQDWLNGKEYCKVSNKALPAPIEKTISKAKGQPREPQVYTLPPSREEMTKNQVSLTCLVGFYPSDIAVEWESNGQPENNYKTTPPVLDSDGSFFLYSKLTVDKSRWQQNVFSCSVMHEALHNHYTQKSLSLSPGK
IC50 [16]: 0.0043 µM

B5: M91011 (designed binder)
chain: GSGMKETAAAKFERQHMDSPDLGTDDDDKAMADIGSANSDPQFGLFSKYRTPNCMMYKYAQCSHKSQPVCGSDMSTYANECTLCMKIREGGHNIKIIRNGPCGASAAA
IC50 [2]: 0.021 µM
IC50 [3]: 0.016 µM
IC50 [4]: 0.016 µM
IC50 [7]: 0.015 µM
IC50 [8]: 0.023 µM
IC50 [9]: 0.015 µM
IC50 [10]: 0.021 µM
IC50 [11]: 0.024 µM
IC50 [12]: 0.028 µM
IC50 [15]: 0.0087 µM

B6: M91002_G0 (designed binder)
chain: GSGMKETAAAKFERQHMDSPDLGTDDDDKAMAENLYFQGDPQFGLFSKYRTPNCRTGRGPACQMGFQPVCGSDMSTYANECTLCMKIREGGHNIKIIRNGPC
IC50 [1]: 0.0036 µM
